The text below walks through data of patent publication US20100069304A1, “PROTECTIVE EFFECTS OF INHIBITING THE INTERACTION OF CALMODULIN AND MUTANT HUNTINGTIN PROTEIN” (priority 2008, published 2010).

For this test, the target named is htt-N63-148Q (63 amino acid N-terminal huntingtin fragment containing 148 polyglutamine repeats) (UniProt P42858). Put plainly: cell-based or functional assay.
htt-N63-148Q (63 amino acid N-terminal huntingtin fragment containing 148 polyglutamine repeats), sequence (P42858 other isoform, or with tags, fused parts or gaps limits assumed): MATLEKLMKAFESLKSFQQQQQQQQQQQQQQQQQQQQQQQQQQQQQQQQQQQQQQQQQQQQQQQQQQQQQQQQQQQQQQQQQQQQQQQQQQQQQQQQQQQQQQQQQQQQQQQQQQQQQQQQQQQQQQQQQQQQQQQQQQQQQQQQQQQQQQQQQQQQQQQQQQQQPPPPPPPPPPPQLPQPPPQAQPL

“CaM-C-term (C-terminal CaM construct, last 72 amino acids of calmodulin) (from UniProt P0DP23 78-149)”: the TG-catalyzed modifications of huntingtin (second experiment, HEK-293T cells) (fold decrease) was 2; the TG-modified huntingtin (81D4 immunoprecipitation, immunoblot, HEK-293T cells) (fold decrease) is 2; the cytotoxicity (LDH assay, HEK-293T cells) worked out at 40 % decrease; the cytotoxicity (LDH assay, second experiment, HEK-293T cells) was 40 % decrease.
Consider “CaM-center (center region CaM construct, 77 amino acids in the center of calmodulin) (from UniProt P0DP23 37-113)”, for which the TG-catalyzed modifications of huntingtin (second experiment, HEK-293T cells) (fold decrease) worked out at 2; the TG-modified huntingtin (81D4 immunoprecipitation, immunoblot, HEK-293T cells) (fold decrease) amounted to 2; the carbachol-stimulated intracellular Ca2+ release (Fura-2, HEK-293T cells) is 10 % decrease; the cytotoxicity (LDH assay, HEK-293T cells) was determined as 40 % decrease. Further, the cytotoxicity (LDH assay, second experiment, HEK-293T cells) stood at 50 % decrease.
